Literature values as cited in article PMC8448686.

Tests used:
[1] = biological target: HER2 (Homo sapiens) (UniProt P04626); assay: LigandTracer
[2] = biological target: CD20 (Homo sapiens) (UniProt P11836); assay: LigandTracer
UniProt P11836, sequence (P11836 whole entry): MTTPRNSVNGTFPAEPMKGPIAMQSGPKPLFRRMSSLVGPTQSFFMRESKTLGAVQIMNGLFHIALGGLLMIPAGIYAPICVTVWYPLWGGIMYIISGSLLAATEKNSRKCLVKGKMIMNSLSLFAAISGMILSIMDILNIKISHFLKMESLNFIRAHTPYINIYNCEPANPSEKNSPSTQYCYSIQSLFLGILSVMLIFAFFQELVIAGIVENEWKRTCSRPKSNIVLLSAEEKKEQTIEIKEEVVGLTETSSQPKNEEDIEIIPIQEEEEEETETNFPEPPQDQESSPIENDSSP

Row | Substance | Kd [1] [nM] | Kd [2] [nM]
1 | Pertuzumab | 0.13 | 
2 | Rituximab |  | 0.93
